Assay [1] deals with T1, LY6/PLAUR Domain Containing 3, LYPD3 (31-325) with C-terminal 6x-His tag (UniProt O95274 31-325).
T1 construct: LY6/PLAUR Domain Containing 3 (LYPD3, C4.4A), residues 31-325; also called C4.4A; source: expi293F, transfected, secreted, purified from media (HisTrap Excel); not shown: His6, C-terminal, kept
T1 sequence (looked up): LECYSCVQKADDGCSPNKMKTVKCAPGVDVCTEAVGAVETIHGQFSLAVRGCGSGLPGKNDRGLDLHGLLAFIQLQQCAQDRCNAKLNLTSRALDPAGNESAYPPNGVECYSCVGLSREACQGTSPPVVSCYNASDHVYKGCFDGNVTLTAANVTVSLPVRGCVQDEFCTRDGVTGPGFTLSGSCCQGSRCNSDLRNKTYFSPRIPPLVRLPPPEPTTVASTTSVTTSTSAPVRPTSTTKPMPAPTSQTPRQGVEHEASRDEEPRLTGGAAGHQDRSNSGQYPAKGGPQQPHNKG
Description: ELISA; MaxiSorp plates coated with 1 µg AGR2 (or BSA); varying LYPD3 in 50 mM Tris, 140 mM NaCl, 1% BSA, 0.05% Tween 20, pH 8.0, 1 h at 37 °C; detection with anti-6x-His-peroxidase. To be noted: both partners purified.

Assay [2] addresses T2, Anterior Gradient-2 (AGR2/PDIA17), AGR2 (21-175), 6x-His tag removed (human, UniProt O95994).
Assay [3] addresses T2, Anterior Gradient-2 (AGR2/PDIA17), AGR2 …. The assay can be described thus: ELISA; MaxiSorp plates coated with 1 µg AGR2 (wild type or mutant), PDI, TXN or BSA; varying MAb in 50 mM Tris, 140 mM NaCl, 1% BSA, 0.05% Tween 20, pH 8.0, 1 h at 37 °C; detection with Protein L-peroxidase. The conditions noted are these: both partners purified. Background: In an ELISA, binding on a coated surface is turned into a signal by an enzyme label.

B1: Anterior Gradient-2 (AGR2/PDIA17), AGR2 (21-175), 6x-His tag removed (natural protein, human, UniProt O95994 21-175, looked up)
chain: RDTTVKPGAKKDTKDSRPKLPQTLSRGWGDQLIWTQTYEEALYKSKTSNKPLMIIHHLDECPHSQALKKVFAENKEIQKLAEQFVLLNLVYETTDKHLSPDGQYVPRIMFVDPSLTVRADITGRYSNRLYAYEPADTALLLDNMKKALKLLKTEL
notes: Anterior Gradient-2 (AGR2/PDIA17), human, residues 21-175; tag removed with 8x-His-TEV; also called rAGR2; recombinant AGR2; source: E. coli BL21(DE3), purified (HisTrap, TEV cleavage, second HisTrap flow-through); not shown: His6, N-terminal, cleaved
In the case of B1, the binding result in assay [1] is recorded as “binds”.

B2: S31R/A53Y/T59P (antibody, V domains shown)
VH: EVQLLESGGGLVQPGGSLRLSCAASGFTFSRYAMSWVRQAPGKGLEWVSGISYQGAHTPYADSVKGRFTISRDNSKNTLYLQMNSLRAEDTAVYYCAKTYKGFDYWGQGTLVTVSS
VL: DIQMTQSPSSLSASVGDRVTITCRASQSISSYLNWYQQKPGKAPKLLIYSASRLQSGVPSRFSGSGSGTDFTLTISSLQPEDFATYYCQQGRRMPPTFGQGTKVEIK
As for B2, in assay [2], the binding result is listed as “binds”.

B3: S31R/A53F/T59P (antibody, V domains shown)
VH: EVQLLESGGGLVQPGGSLRLSCAASGFTFSRYAMSWVRQAPGKGLEWVSGISFQGAHTPYADSVKGRFTISRDNSKNTLYLQMNSLRAEDTAVYYCAKTYKGFDYWGQGTLVTVSS
VL: DIQMTQSPSSLSASVGDRVTITCRASQSISSYLNWYQQKPGKAPKLLIYSASRLQSGVPSRFSGSGSGTDFTLTISSLQPEDFATYYCQQGRRMPPTFGQGTKVEIK
For the molecule B3, the binding result in assay [2] is “binds”.

B4: anti-AGR2 monoclonal antibody MAb-15 (VH-VL of scFv-15 in a full human IgG1 backbone) (antibody, V domains shown)
VH: EVQLLESGGGLVQPGGSLRLSCAASGFTFSSYAMSWVRQAPGKGLEWVSGISAQGAHTTYADSVKGRFTISRDNSKNTLYLQMNSLRAEDTAVYYCAKTYKGFDYWGQGTLVTVSS
VL: DIQMTQSPSSLSASVGDRVTITCRASQSISSYLNWYQQKPGKAPKLLIYSASRLQSGVPSRFSGSGSGTDFTLTISSLQPEDFATYYCQQGRRMPPTFGQGTKVEIK
notes: VH of scFv-15 (as the VH of m3); human IgG1 heavy chain constant region (full human IgG1 backbone); VL of scFv-15 (as the VL of m3); light chain constant region; IgG1; also called original anti-AGR2 antibody; parent MAb-15; source: expi293F, transfected, purified from media (rProteinA)
One may read the EC50 as the concentration giving half of the maximal effect. High values mean lower potency in that assay, low ones higher potency in that assay. In assay [3], B4 displayed a concentration for a half-maximal effect (EC50) of 2.03 nM.

B5: affinity-matured anti-AGR2 MAb S31R/A53Y (VH mutant of MAb-15, human IgG1) (antibody, V domains shown)
VH: EVQLLESGGGLVQPGGSLRLSCAASGFTFSRYAMSWVRQAPGKGLEWVSGISYQGAHTTYADSVKGRFTISRDNSKNTLYLQMNSLRAEDTAVYYCAKTYKGFDYWGQGTLVTVSS
VL: DIQMTQSPSSLSASVGDRVTITCRASQSISSYLNWYQQKPGKAPKLLIYSASRLQSGVPSRFSGSGSGTDFTLTISSLQPEDFATYYCQQGRRMPPTFGQGTKVEIK
notes: as the VH of m4 (scFv-15) with the stated changes; human IgG1 heavy chain constant region; IgG1; also called anti-AGR2 MAb clone S31R/A53Y; source: expi293F, transfected, purified from media (rProteinA)
Consider B5, for which the response in assay [3] was half-maximal at 0.0404 nM (EC50).

B6: affinity-matured anti-AGR2 MAb S31R/A53F (VH mutant of MAb-15, human IgG1) (antibody, V domains shown)
VH: EVQLLESGGGLVQPGGSLRLSCAASGFTFSRYAMSWVRQAPGKGLEWVSGISFQGAHTTYADSVKGRFTISRDNSKNTLYLQMNSLRAEDTAVYYCAKTYKGFDYWGQGTLVTVSS
VL: DIQMTQSPSSLSASVGDRVTITCRASQSISSYLNWYQQKPGKAPKLLIYSASRLQSGVPSRFSGSGSGTDFTLTISSLQPEDFATYYCQQGRRMPPTFGQGTKVEIK
notes: as the VH of m4 (scFv-15) with the stated changes; human IgG1 heavy chain constant region; IgG1; source: expi293F, transfected, purified from media (rProteinA)
With B6, in assay [3], the midpoint of the response, the EC50, lay at 0.0385 nM.

B7: affinity-matured anti-AGR2 MAb S31R (VH mutant of MAb-15, human IgG1) (antibody, V domains shown)
VH: EVQLLESGGGLVQPGGSLRLSCAASGFTFSRYAMSWVRQAPGKGLEWVSGISAQGAHTTYADSVKGRFTISRDNSKNTLYLQMNSLRAEDTAVYYCAKTYKGFDYWGQGTLVTVSS
VL: DIQMTQSPSSLSASVGDRVTITCRASQSISSYLNWYQQKPGKAPKLLIYSASRLQSGVPSRFSGSGSGTDFTLTISSLQPEDFATYYCQQGRRMPPTFGQGTKVEIK
notes: as the VH of m4 (scFv-15) with the stated change; human IgG1 heavy chain constant region; IgG1; source: expi293F, transfected, purified from media (rProteinA)
As to B7, the concentration giving a half-maximal response (EC50) in assay [3] is 0.156 nM.

For the origin of these results see article PMC11672854, “A High-Affinity Monoclonal Antibody Against the Pancreatic Ductal Adenocarcinoma Target, Anterior Gradient-2 (AGR2/PDIA17)” (Antibodies, 2024).
